Test results: PMC8761493, “New insights into the phosphorylation of the threonine motif of the β1 integrin cytoplasmic domain” (Life Science Alliance, 2022)
One block for each molecule: values may come before it. Non-standard residues stand in square brackets, D forms with d. No end group written: not given here. pT = C[C@@H](OP(=O)(O)O)[C@H](N)C(=O)O

Legend:
[1] = tested on: anti-β1-pTpT integrin antibody (Thermo Fisher Scientific); assay: Integrin peptide ELISA (direct ELISA, immobilized tail peptides); type: binding; conditions: antibody dilution range 1:500 to 1:10,000 (Fig 1D)
Method: (§1) The plates were blocked with 200 μl PBS containing 3% BSA for 1 h at room temperature and then washed thrice with 200 μl PBS. Different dilutions of the anti–β1-pTpT antibodies (Thermo Fisher Scientific and Abcam) in 100 μl PBS supplemented with 3% BSA were incubated for 2 h at room temperature. After washing thrice with 200 μl PBS, 100 μl of anti-rabbit-IgG HRP-conjugate was added (1:10,000 in PBS supplemented with 3% BS) and incubated for 1 h at room temperature. The plates were washed thrice with 200 μl PBS, developed with 100 μl of ABTS substrate solution (1-Step ABTS; Thermo Fisher Scientific) before measuring absorbance at λ = 405 nm in a SpectraMax ABS Plus plate reader (Molecular Devices).

[2] = tested on: anti-β1-pTpT integrin antibody (Abcam); assay: as above; type: binding; conditions: antibody dilution range 1:500 to 1:10,000 (Fig 1E)
Method: as §1

[3] = target: T1, kindlin-2 (Homo sapiens, UniProt Q96AC1); assay: Microscale thermophoresis (MST) affinity measurement; type: binding; conditions: 200 nM Atto488-labeled β1-tail peptide, 20 mM Tris pH 7.5, 200 mM NaCl, 1 mM TCEP, 0.05% Tween-20
T1 sequence (Q96AC1 1-680): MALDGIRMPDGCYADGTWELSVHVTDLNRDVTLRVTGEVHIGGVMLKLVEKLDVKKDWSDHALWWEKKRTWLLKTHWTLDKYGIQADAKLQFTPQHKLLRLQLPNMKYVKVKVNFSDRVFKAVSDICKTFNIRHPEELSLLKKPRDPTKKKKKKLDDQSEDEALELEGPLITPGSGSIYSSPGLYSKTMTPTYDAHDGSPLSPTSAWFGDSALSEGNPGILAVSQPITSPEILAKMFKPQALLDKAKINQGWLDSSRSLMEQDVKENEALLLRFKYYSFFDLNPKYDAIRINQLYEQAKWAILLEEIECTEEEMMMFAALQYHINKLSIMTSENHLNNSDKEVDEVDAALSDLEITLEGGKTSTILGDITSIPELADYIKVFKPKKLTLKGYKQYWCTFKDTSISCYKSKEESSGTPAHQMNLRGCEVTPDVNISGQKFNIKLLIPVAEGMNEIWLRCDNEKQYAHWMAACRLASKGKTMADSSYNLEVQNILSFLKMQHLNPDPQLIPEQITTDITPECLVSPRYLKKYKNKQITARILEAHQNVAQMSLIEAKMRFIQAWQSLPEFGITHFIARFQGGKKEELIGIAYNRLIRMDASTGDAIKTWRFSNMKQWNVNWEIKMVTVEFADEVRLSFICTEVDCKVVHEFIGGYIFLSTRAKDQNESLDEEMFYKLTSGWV

[4] = target: FNIII7-10^ΔRGD; assay: AFM-based single-cell force spectroscopy (binding probability); single fibroblast on a concanavalin A-coated cantilever brought onto glass coated with 50 μg/ml FN fragment; contact force 200 pN, contact time ~300 ms, 37°C, 1 μM cilengitide
[5] = target: FNIII7-10^RGD; assay: as above
[6] = tested on: endogenous SNX17; assay: Peptide pull-down from whole cell lysate, Western blot; type: binding; conditions: Western blot, n = 5
Method: (§2) Before use, peptides were immobilized on 25 μl Dynabeads MyOne Streptavidin C1 (10 mg/ml; Invitrogen) in Mammalian Protein Extraction Reagent (Thermo Fisher Scientific) containing protease inhibitors (cOmplete; Roche) and phosphatase inhibitors (Phosphatase Inhibitor Cocktail 2 and 3; Sigma-Aldrich) for 3 h at 4°C. Cell lysates were prepared with MPER containing protease and phosphatase inhibitors and 0.5 mg of supernatant was incubated with the peptide-coated beads at 4°C under constant rotation. For pull-downs with recombinant proteins, synthetic β1 integrin tail peptides were immobilized on 25 μl Dynabeads MyOne Streptavidin C1 (10 mg/ml; Invitrogen) for 3 h at 4°C, incubated with 2% BSA in Mammalian Protein Extraction Reagent (Thermo Scientific Scientific) for 30 min at 4°C to block unspecific binding before adding kindlin-2 or THD (conc 2.5 and 8.5 nM, respectively) and further incubation on a rotator for 2 h at 4°C. After washing the beads three times with lysis buffer, the proteins bound to the beads were eluted using Laemmli buffer, separated on a 10% SDS–PAGE, and analyzed by Western blotting.

[7] = tested on: endogenous kindlin-2; assay: as above; type: binding; conditions: Western blot, n = 5
Method: as §2

[8] = target: talin-1 head domain (THD) (UniProt P26039); assay: Microscale thermophoresis (MST) affinity measurement; type: binding; conditions: 200 nM Atto488-labeled β1-tail peptide, 20 mM Tris pH 7.5, 200 mM NaCl, 1 mM TCEP, 0.05% Tween-20
Method: All MST measurements were performed on a Monolith NT.115 red-blue (Nanotemper) using premium-coated capillaries to reduce non-specific interaction of the proteins with the glass surface. Both interaction partners (ligand and receptor) were transferred into MST buffer (20 mM Tris, pH 7.5, 200 mM sodium chloride, 1 mM tris(2-carboxyethyl)phosphine [TCEP], 0.05% Tween-20) to avoid artifacts derived from buffer mismatches. […] The measurements were carried out at 20% light emitting diode power and 20% and 40% MST power. Data were analyzed using the MO Affinity Analysis Software (Nanotemper).

[9] = target: T2, recombinant talin-1 head domain (THD); assay: MST
T2 chain: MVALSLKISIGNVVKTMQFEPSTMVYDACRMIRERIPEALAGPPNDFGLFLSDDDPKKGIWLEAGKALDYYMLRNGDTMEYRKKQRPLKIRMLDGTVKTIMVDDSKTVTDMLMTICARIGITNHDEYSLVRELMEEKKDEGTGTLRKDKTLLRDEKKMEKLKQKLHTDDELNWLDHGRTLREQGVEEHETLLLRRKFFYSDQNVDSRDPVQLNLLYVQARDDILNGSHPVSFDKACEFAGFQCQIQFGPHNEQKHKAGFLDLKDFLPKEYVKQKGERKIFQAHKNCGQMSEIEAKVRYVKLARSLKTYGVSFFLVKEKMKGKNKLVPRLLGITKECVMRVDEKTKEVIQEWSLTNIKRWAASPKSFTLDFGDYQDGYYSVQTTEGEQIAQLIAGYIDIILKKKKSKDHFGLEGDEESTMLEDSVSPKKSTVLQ

[10] = target: T3, recombinant kindlin-2 (UniProt Q8CIB5 1-680); assay: MST
T3 chain: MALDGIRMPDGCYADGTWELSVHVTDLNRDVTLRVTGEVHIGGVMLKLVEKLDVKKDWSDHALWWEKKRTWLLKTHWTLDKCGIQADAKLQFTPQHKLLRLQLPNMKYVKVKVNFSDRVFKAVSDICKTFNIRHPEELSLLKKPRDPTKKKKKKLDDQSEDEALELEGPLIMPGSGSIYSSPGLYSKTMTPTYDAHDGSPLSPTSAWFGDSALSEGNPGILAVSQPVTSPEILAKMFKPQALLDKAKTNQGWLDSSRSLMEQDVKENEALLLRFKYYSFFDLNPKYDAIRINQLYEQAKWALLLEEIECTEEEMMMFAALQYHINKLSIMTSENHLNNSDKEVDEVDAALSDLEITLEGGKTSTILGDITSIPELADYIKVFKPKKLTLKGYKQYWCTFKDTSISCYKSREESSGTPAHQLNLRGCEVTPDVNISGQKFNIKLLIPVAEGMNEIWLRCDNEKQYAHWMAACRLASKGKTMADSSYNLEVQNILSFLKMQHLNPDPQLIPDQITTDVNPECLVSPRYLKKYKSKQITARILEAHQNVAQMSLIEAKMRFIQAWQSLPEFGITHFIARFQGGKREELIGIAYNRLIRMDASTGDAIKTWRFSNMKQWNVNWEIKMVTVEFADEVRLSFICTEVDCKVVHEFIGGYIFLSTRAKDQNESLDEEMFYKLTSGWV

Sequence of talin-1 head domain (THD) (P26039 whole entry, the tested form may be a part): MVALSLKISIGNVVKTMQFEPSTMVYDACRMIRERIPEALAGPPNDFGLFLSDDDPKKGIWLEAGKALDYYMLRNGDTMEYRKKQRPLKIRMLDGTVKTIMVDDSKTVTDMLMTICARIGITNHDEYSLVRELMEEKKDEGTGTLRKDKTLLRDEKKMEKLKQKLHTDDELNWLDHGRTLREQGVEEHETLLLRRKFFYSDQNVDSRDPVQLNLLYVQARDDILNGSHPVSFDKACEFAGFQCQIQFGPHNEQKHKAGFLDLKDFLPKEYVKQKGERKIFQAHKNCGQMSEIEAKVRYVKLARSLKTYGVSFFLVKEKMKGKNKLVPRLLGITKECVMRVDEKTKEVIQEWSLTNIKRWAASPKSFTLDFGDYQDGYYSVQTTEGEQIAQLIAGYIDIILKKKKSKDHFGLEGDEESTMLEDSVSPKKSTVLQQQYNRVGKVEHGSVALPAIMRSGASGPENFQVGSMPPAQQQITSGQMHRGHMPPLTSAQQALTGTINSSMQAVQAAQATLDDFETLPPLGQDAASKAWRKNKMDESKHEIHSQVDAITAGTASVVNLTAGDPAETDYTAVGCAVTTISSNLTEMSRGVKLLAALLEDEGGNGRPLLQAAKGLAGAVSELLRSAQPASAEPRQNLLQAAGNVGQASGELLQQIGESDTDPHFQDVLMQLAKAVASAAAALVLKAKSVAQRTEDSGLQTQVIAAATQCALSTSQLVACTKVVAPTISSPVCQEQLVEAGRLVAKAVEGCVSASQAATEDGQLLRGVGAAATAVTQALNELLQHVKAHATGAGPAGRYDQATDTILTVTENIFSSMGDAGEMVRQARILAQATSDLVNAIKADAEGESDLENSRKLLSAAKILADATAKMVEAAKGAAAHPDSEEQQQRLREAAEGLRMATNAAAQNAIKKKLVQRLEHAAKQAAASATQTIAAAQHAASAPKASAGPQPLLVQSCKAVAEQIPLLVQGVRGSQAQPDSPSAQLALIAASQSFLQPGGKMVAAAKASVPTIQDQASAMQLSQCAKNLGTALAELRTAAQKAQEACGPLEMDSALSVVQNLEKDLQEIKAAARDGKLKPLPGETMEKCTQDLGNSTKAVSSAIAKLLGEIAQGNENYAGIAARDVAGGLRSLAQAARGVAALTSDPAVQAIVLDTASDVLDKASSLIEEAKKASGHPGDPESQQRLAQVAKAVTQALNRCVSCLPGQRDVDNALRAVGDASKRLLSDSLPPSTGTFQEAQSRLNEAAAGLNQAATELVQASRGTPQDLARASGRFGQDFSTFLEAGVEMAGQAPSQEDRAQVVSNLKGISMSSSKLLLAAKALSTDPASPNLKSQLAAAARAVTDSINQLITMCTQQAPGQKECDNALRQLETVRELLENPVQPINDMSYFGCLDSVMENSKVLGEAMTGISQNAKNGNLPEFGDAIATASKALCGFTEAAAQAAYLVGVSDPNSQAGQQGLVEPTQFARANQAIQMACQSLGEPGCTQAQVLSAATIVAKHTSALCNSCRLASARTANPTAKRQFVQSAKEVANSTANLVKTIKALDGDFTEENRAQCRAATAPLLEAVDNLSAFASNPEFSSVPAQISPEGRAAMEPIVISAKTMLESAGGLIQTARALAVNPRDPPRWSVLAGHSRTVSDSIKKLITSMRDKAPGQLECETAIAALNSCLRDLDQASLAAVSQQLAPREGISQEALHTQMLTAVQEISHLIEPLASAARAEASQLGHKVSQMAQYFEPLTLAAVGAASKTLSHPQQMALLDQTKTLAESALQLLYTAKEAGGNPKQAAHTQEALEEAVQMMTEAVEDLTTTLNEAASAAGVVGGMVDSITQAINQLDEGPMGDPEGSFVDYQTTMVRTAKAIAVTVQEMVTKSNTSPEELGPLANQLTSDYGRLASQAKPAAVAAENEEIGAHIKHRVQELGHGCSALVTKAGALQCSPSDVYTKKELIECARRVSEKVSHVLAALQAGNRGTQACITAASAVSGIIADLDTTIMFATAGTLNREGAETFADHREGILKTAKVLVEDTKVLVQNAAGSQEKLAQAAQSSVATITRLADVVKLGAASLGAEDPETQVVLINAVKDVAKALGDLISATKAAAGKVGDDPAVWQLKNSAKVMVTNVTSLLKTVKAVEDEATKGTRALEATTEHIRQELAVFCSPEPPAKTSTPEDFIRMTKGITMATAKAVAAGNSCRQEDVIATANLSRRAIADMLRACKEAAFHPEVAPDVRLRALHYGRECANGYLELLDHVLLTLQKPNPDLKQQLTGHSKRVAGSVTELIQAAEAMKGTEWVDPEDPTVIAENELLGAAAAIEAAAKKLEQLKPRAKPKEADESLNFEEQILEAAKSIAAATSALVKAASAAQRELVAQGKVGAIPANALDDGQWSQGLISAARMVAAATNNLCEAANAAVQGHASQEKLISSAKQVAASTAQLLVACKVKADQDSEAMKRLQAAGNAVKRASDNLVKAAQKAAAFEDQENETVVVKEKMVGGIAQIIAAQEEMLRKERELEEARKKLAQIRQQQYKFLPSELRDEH
Sequence of β1-TT/AA integrin on β1-KO fibroblasts (P09055 whole entry, looked up): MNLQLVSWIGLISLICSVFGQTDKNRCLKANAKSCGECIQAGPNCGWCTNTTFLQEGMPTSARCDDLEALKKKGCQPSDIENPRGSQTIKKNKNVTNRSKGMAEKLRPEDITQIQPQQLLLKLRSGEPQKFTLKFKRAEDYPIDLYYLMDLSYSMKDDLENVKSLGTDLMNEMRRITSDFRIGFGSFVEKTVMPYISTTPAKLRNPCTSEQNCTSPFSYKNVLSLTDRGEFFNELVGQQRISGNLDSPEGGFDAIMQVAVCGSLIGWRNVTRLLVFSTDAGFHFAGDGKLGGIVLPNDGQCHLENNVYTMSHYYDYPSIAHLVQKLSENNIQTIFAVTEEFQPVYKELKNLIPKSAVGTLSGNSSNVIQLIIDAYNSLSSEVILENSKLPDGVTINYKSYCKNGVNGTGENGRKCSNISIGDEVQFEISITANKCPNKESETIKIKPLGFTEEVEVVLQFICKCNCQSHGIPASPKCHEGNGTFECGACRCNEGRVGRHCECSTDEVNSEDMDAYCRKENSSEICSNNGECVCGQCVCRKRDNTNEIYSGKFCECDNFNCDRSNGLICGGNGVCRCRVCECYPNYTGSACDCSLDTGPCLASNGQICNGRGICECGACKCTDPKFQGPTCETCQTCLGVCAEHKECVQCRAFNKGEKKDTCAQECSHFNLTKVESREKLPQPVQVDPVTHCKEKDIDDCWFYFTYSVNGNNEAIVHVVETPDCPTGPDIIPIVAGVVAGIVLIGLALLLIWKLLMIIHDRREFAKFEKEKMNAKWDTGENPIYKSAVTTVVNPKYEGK
Sequence of β1-TT/DD integrin on β1-KO fibroblasts (P09055 whole entry, looked up): as above
Sequence of β1-TT/EE integrin on β1-KO fibroblasts (P09055 whole entry, looked up): as above

Molecule: β1-TT/AA integrin on β1-KO fibroblasts (from UniProt P09055 21-798) (receptor)
percent of binding probability experiments with more than one unbinding event [4]: < 3% | percent of binding probability experiments with multiple unbinding events [5]: 7.7%

Molecule: β1-TT/DD integrin on β1-KO fibroblasts (from UniProt P09055 21-798) (receptor)
percent of binding probability experiments with more than one unbinding event [4]: < 3% | percent of binding probability experiments with multiple unbinding events [5]: 3.8%

Molecule: EYEFEPDKVDTGAKGTKMAKNEKKFRNYTVHNIWESRKVAP-OH [scrambled, scrambled β1 integrin cytoplasmic tail peptide used as control, reference compound]
SNX17 binding to the peptide (in words) [6]: lost | kindlin-2 binding to the peptide (in words) [7]: lost

Molecule: LLQEKGGYIPSGPIpTpTIHENEVVKSPSQPG-OH [Wwc2-pTpT, unrelated peptide with a bi-phosphorylated double-threonine motif derived from the cytosolic scaffolding protein Wwc2]
binding of the anti-β1-pTpT antibody to the immobilized peptide (in words) [1]: detected binding | binding of the anti-β1-pTpT antibody to the immobilized peptide (in words) [2]: detected binding

Molecule: HDRREFAKFEKEKMNAKWDTGENPIYKSAVAAVVNPKYEGK [β1-TT/AA]
Kd [3]: 151 ± 1 µM | Kd [8]: 100 ± 15 µM

Molecule: HDRREFAKFEKEKMNAKWDTGENPIYKSAVDDVVNPKYEGK (also: Atto488 label, position not given here) [β1-TT/DD peptide, Atto488-labeled]
Kd [9]: 170 µM

Molecule: HDRREFAKFEKEKMNAKWDTGENPIYKSAVAAVVNPKYEGK (also: Atto488 label, position not given here) [β1-TT/AA peptide, Atto488-labeled]
Kd [10]: 151 µM | Kd [9]: 100 µM

Continued, values first:

binding of the anti-β1-pTpT antibody to the immobilized peptide (in words) [1]: detected binding | binding of the anti-β1-pTpT antibody to the immobilized peptide (in words) [2]: detected binding
Molecule: KWDTGENPIYKEAVpTpTFTVDFTFNKFNPKYEGK-OH [β3/β5-pTpT, chimeric β3/β5-pTpT peptide]

Kd [3]: 4.9 ± 0.7 µM
Molecule: HDRREFAKFEKEKMNAKWDTGENPIAKSAVTTVVNPKYEGK [β1-Y783A]

percent of binding probability experiments with more than one unbinding event [4]: < 3% | percent of binding probability experiments with multiple unbinding events [5]: 4.6%
Molecule: β1-TT/EE integrin on β1-KO fibroblasts (from UniProt P09055 21-798) (receptor)

percent of binding probability experiments with more than one unbinding event [4]: < 3% | percent of binding probability experiments with multiple unbinding events [5]: 32.3%
Molecule: β1-WT integrin on β1-KO fibroblasts (β1-class integrins) (from UniProt P09055 21-798) (receptor)

Kd [8]: 140 ± 20 µM
Molecule: CC[C@H](C)[C@H](NC(=O)[C@@H]1CCCN1C(=O)[C@H](CC(N)=O)NC(=O)[C@H](CCC(=O)O)NC(=O)CNC(=O)[C@@H](NC(=O)[C@H](CC(=O)O)NC(=O)[C@H](Cc1c[nH]c2ccccc12)NC(=O)[C@H](CCCCN)NC(=O)[C@H](C)NC(=O)[C@H](CC(N)=O)NC(=O)[C@H](CCSC)NC(=O)[C@H](CCCCN)NC(=O)[C@H](CCC(=O)O)NC(=O)[C@H](CCCCN)NC(=O)[C@H](CCC(=O)O)NC(=O)[C@H](Cc1ccccc1)NC(=O)[C@H](CCCCN)NC(=O)[C@H](C)NC(=O)[C@H](Cc1ccccc1)NC(=O)[C@H](CCC(=O)O)NC(=O)[C@H](CCCNC(=N)N)NC(=O)[C@H](CCCNC(=N)N)NC(=O)[C@H](CC(=O)O)NC(=O)[C@@H](N)Cc1c[nH]cn1)[C@@H](C)O)C(=O)N[C@@H](Cc1ccc(O)cc1)C(=O)N[C@@H](CCCCN)C(=O)N[C@@H](CO)C(=O)N[C@@H](C)C(=O)N[C@H](C(=O)N[C@H](C(=O)N[C@H](C(=O)N[C@H](C(=O)N[C@H](C(=O)N[C@@H](CC(N)=O)C(=O)N1CCC[C@H]1C(=O)N[C@@H](CCCCN)C(=O)N[C@@H](Cc1ccc(O)cc1)C(=O)N[C@@H](CCC(=O)O)C(=O)NCC(=O)N[C@@H](CCCCN)C(=O)O)C(C)C)C(C)C)[C@@H](C)O)[C@@H](C)O)C(C)C [β1-WT]

Kd [9]: 140 µM
Molecule: HDRREFAKFEKEKMNAKWDTGENPIYKSAV[pT][pT]VVNPKYEGK (also: Atto488 label, position not given here) [β1-pTpT peptide, Atto488-labeled]

Kd [9]: 140 µM
Molecule: HDRREFAKFEKEKMNAKWDTGENPIYKSAVTTVVNPKYEGK (also: Atto488 label, position not given here) [β1-WT peptide, Atto488-labeled]

Kd [10]: 4.9 µM
Molecule: HDRREFAKFEKEKMNAKWDTGENPIAKSAVTTVVNPKYEGK (also: Atto488 label, position not given here) [β1-Y783A peptide, Atto488-labeled]
